In the supplement of paper PMC10567573:

B1: CHIT1 (parent)
chain: CSWKGATKQRIQDQKVPYIFRDNQ
B2: ATL3 (parent)
chain: QELEEEIKELYENFCKHNGSKNVF

Variants of: B1
Assay: protein stability index of a GFP-peptide fusion (GPS, HEK-293T) (PSI 1-6); higher = more stable
Conditions: c terminus: a fixed tail appended
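Also: lentivirally expressed fusions sorted by FACS into six bins by GFP to DsRed ratio, PSI derived from sequencing read proportions per bin multiplied by bin number.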

Variant | protein stability index
CSWKGATKQRIQDQKVPYIFADNQ [R21A] | 3.06
CSWKGATKQRIQDQKVPYIFCDNQ [R21C] | 2.11
CSWKGATKQRIQDQKVPYIFDDNQ [R21D] | 3.49
CSWKGATKQRIQDQKVPYIFEDNQ [R21E] | 3.68
CSWKGATKQRIQDQKVPYIFFDNQ [R21F] | 2.47
CSWKGATKQRIQDQKVPYIFGDNQ [R21G] | 2.98
CSWKGATKQRIQDQKVPYIFHDNQ [R21H] | 2.38
CSWKGATKQRIQDQKVPYIFIDNQ [R21I] | 2.18
CSWKGATKQRIQDQKVPYIFKDNQ [R21K] | 2.83
CSWKGATKQRIQDQKVPYIFLDNQ [R21L] | 2.9
CSWKGATKQRIQDQKVPYIFMDNQ [R21M] | 2.44
CSWKGATKQRIQDQKVPYIFNDNQ [R21N] | 3.09
CSWKGATKQRIQDQKVPYIFPDNQ [R21P] | 3.15
CSWKGATKQRIQDQKVPYIFQDNQ [R21Q] | 2.64
CSWKGATKQRIQDQKVPYIFSDNQ [R21S] | 3.12
CSWKGATKQRIQDQKVPYIFTDNQ [R21T] | 2.99
CSWKGATKQRIQDQKVPYIFVDNQ [R21V] | 1.96
CSWKGATKQRIQDQKVPYIFWDNQ [R21W] | 1.87
CSWKGATKQRIQDQKVPYIFYDNQ [R21Y] | 2.72
CSWKGATKQRIQDQKVPYIFRANQ [D22A] | 2.57
CSWKGATKQRIQDQKVPYIFRCNQ [D22C] | 1.66
CSWKGATKQRIQDQKVPYIFRENQ [D22E] | 2.44
CSWKGATKQRIQDQKVPYIFRFNQ [D22F] | 1.35
CSWKGATKQRIQDQKVPYIFRGNQ [D22G] | 3.03

Variant | protein stability index
CSWKGATKQRIQDQKVPYIFRHNQ [D22H] | 1.72
CSWKGATKQRIQDQKVPYIFRINQ [D22I] | 1.57
CSWKGATKQRIQDQKVPYIFRKNQ [D22K] | 2.42
CSWKGATKQRIQDQKVPYIFRLNQ [D22L] | 2.06
CSWKGATKQRIQDQKVPYIFRMNQ [D22M] | 2.43
CSWKGATKQRIQDQKVPYIFRNNQ [D22N] | 2.42
CSWKGATKQRIQDQKVPYIFRPNQ [D22P] | 2.22
CSWKGATKQRIQDQKVPYIFRQNQ [D22Q] | 2.33
CSWKGATKQRIQDQKVPYIFRRNQ [D22R] | 2.66
CSWKGATKQRIQDQKVPYIFRSNQ [D22S] | 2.42
CSWKGATKQRIQDQKVPYIFRTNQ [D22T] | 2.18
CSWKGATKQRIQDQKVPYIFRVNQ [D22V] | 1.83
CSWKGATKQRIQDQKVPYIFRWNQ [D22W] | 1.6
CSWKGATKQRIQDQKVPYIFRDAQ [N23A] | 2.76
CSWKGATKQRIQDQKVPYIFRDCQ [N23C] | 1.91
CSWKGATKQRIQDQKVPYIFRDDQ [N23D] | 3.53
CSWKGATKQRIQDQKVPYIFRDEQ [N23E] | 2.54
CSWKGATKQRIQDQKVPYIFRDFQ [N23F] | 2.04
CSWKGATKQRIQDQKVPYIFRDHQ [N23H] | 1.99
CSWKGATKQRIQDQKVPYIFRDIQ [N23I] | 2.56
CSWKGATKQRIQDQKVPYIFRDKQ [N23K] | 3.05
CSWKGATKQRIQDQKVPYIFRDLQ [N23L] | 1.89
CSWKGATKQRIQDQKVPYIFRDPQ [N23P] | 2.38
CSWKGATKQRIQDQKVPYIFRDQQ [N23Q] | 2.6

Variant | protein stability index
CSWKGATKQRIQDQKVPYIFRDRQ [N23R] | 2.82
CSWKGATKQRIQDQKVPYIFRDSQ [N23S] | 2.2
CSWKGATKQRIQDQKVPYIFRDVQ [N23V] | 1.67
CSWKGATKQRIQDQKVPYIFRDWQ [N23W] | 1.62
CSWKGATKQRIQDQKVPYIFRDYQ [N23Y] | 2.11
CSWKGATKQRIQDQKVPYIFRDNA [Q24A] | 2.29
CSWKGATKQRIQDQKVPYIFRDNC [Q24C] | 3.02
CSWKGATKQRIQDQKVPYIFRDND [Q24D] | 3.34
CSWKGATKQRIQDQKVPYIFRDNE [Q24E] | 4.3
CSWKGATKQRIQDQKVPYIFRDNF [Q24F] | 2.01
CSWKGATKQRIQDQKVPYIFRDNG [Q24G] | 2.18
CSWKGATKQRIQDQKVPYIFRDNH [Q24H] | 2.06
CSWKGATKQRIQDQKVPYIFRDNI [Q24I] | 2.85
CSWKGATKQRIQDQKVPYIFRDNK [Q24K] | 3.16
CSWKGATKQRIQDQKVPYIFRDNL [Q24L] | 2.31
CSWKGATKQRIQDQKVPYIFRDNM [Q24M] | 1.92
CSWKGATKQRIQDQKVPYIFRDNN [Q24N] | 2.45
CSWKGATKQRIQDQKVPYIFRDNP [Q24P] | 2.48
CSWKGATKQRIQDQKVPYIFRDNS [Q24S] | 2.82
CSWKGATKQRIQDQKVPYIFRDNT [Q24T] | 2.75
CSWKGATKQRIQDQKVPYIFRDNV [Q24V] | 2.16
CSWKGATKQRIQDQKVPYIFRDNW [Q24W] | 1.3
CSWKGATKQRIQDQKVPYIFRDNY [Q24Y] | 1.61

Variants of: B2
Assay: as above
Conditions: c terminus: a fixed tail appended

Variant | protein stability index
QELEEEIKELYENFCKHNGSPNVF [K21P] | 2.37
QELEEEIKELYENFCKHNGSKNSF [V23S] | 2.38
QEAEEEIKELYENFCKHNGSKNVF [L3A] | 4.15
QELEEEIKELYENSCKHNGSKNVF [F14S] | 4.58
QELEEEIKELYENFCRHNGSKNVF [K16R] | 2.73
QLLEEEIKELYENFCKHNGSKNVF [E2L] | 2.21
QELEEEIKELRENFCKHNGSKNVF [Y11R] | 4.39
QELEEEIKELYENFCKKNGSKNVF [H17K] | 2.67
QELEEEIRELYENFCKHNGSKNVF [K8R] | 2.24
NELEEEIKELYENFCKHNGSKNVF [Q1N] | 3.39
QELEEEIKELYENFCKTNGSKNVF [H17T] | 2.63
QELEEEICELYENFCKHNGSKNVF [K8C] | 3.01
QELEEEIKELYENFCKHNGSKNVL [F24L] | 2.56
QELEEEIKELYENFCKHNGSKPVF [N22P] | 3.25
QELEEEIWELYENFCKHNGSKNVF [K8W] | 2.68
QELEREIKELYENFCKHNGSKNVF [E5R] | 2.02
QENEEEIKELYENFCKHNGSKNVF [L3N] | 2.42
QELEEEIKELYENFCKHNGSKQVF [N22Q] | 2.98
QELEEEIKELYENQCKHNGSKNVF [F14Q] | 4.49
QELEEEIKELYENWCKHNGSKNVF [F14W] | 2.58
QELEEEIKELYENFVKHNGSKNVF [C15V] | 2.27
QELEEEIKELYENFQKHNGSKNVF [C15Q] | 3.67
QELESEIKELYENFCKHNGSKNVF [E5S] | 2.17
